Data published in the supplement of paper PMC12764529.
± gives the half width of the 95% confidence interval.

Legend:
[1] = folding stability dG unfold (combined trypsin and chymotrypsin); higher = more stable
Method in brief: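 Designed mini-proteins (under 80 residues, no cysteine) in a PA-tagged cDNA display construct were digested with trypsin and chymotrypsin. Each protease was used at 11 concentrations (threefold dilutions) plus a no-protease condition, followed by sequencing. K50 was inferred by Bayesian fitting of sequencing counts, and unfolding free energy was derived against a sequence-predicted unfolded-state K50 and a shared folded-state K50, per protease or combined. Only designs with AlphaFold2 dimer inter-PAE above 15 were kept.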

[2] = folding stability dG unfold from chymotrypsin proteolysis; higher = more stable
Protocol: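 Folding stability of de novo designed mini-proteins (<80 aa, no Cys; designed by TrROS, TrMRF, ProteinMPNN and the joint model) was measured by cDNA display proteolysis with trypsin and chymotrypsin. Each protease was used at 11 concentrations in a threefold dilution series plus a no-protease condition. K50 was inferred by Bayesian fitting of sequencing counts, and dG unfold was derived against a sequence-predicted unfolded-state K50 (Tsuboyama et al. method). Sequences shown include variable-length N-terminal GS-type padding (SAGGSAGG...) inside a display construct carrying a PA tag. Rows were kept only if the AF2 dimer inter-PAE was >15, to exclude likely homo-oligomers.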

Row | Sequence | folding stability dG unfold [1] [kcal/mol] | folding stability dG unfold [2] [kcal/mol]
1 | SAGGSAIKPGDPYVRIKFRMGNEPMEFTIPAEKIKKITVDDPDDQVTIRFPGNGRKFPMKLEEVEISAGGSA [r15_495_TrROS] | -0.41 ± 0.25 | -0.316 ± 0.33
2 | SAGGSAGGSAGGSMKTITFTDPAEIAAAIEEAEKEGVEEVVLLTPEGKTRVIPKGVPLPSAGGSAGGSAGGS [r4_260_JUSTAS] | -0.00846 ± 0.37 | 0.516 ± 0.083
3 | SAGGSAGGSAGRTIMIPPNQTAEEAVNHLKEELPPGNKNVTINYWDGDGEWEKFEIEVKKSAGGSAGGSAGG [r17_215_TrROS] | < -1 | -0.616 ± 0.44
4 | SAGPLEELLARAERVEEDPSTGKRLVYTSDPELVRAALAEGAPDYTLTESPDDRRSALINFPPLPPGVLSAG [r14_115_JUSTAS] | -0.0125 ± 0.14 | 0.32 ± 0.14
5 | SAGGSAGGITLVVEGMPAEQMEEMKQKIREFAEDYNVEVNIDQERNPDGRMRATVEIEPPPGDPSAGGSAGG [r6_907_TrROS] | -0.767 ± 0.28 | -0.472 ± 0.15
6 | SAGGSAGGSAMNVTTETRTDPVTGNTTTTTTYTDTGEVVTTTTTTPPETTTTTTTTTSLTKSAGGSAGGSAG [r3_126_JUSTAS] | 0.524 ± 0.2 | 0.982 ± 0.07
7 | SAGGSAGGSAGGGPMLRYTLTFTLPDSTVTKEFSSEEEVEEAKEQLPEEYPVDPNVTVSPSAGGSAGGSAGG [r7_18_JUSTAS] | -0.22 ± 0.32 | -0.113 ± 0.43
8 | SAGGSAMKVEKEGDKVTIIVNAPESLNDKKVLTEKIKKAIEENKNKEVEIIAPPKYKPYAEETIKNSAGGSA [r15_89_JUSTAS] | -0.558 ± 0.39 | -0.217 ± 0.52
9 | SAGGSMETTTLSSTPAELIATVEAEAAAAGKTISEITVTEDPATGLATVPVTIEITPAPALAPAARRSAGGS [r16_584_JUSTAS] | 0.249 ± 0.21 | 0.722 ± 0.065
10 | SAGGSAGGMIVELPTPDDETLTLTTRPTPDGSVPVTATRLTPDSTEVTTVSTADPAVVELVAAASAGGSAGG [r6_607_JUSTAS] | < -1 | -0.448 ± 0.26
11 | SAGGSITTEKSLPETNLTLKTTYEGDTETVEIYHHPESDTPVLLAKETVTFSPDGSVSRKSTVVKIESAGGS [r8_69_JUSTAS] | -0.483 ± 0.27 | -0.0855 ± 0.17
12 | SAGGSAGGSTVEELKKKAKELGLEVTVEKNKKDKKKITITVSEEAKKKLKEIAKEENIKVEIKSAGGSAGGS [r12_74_TrROS_Hall] | -0.473 ± 0.47 | 0.0632 ± 0.051
13 | SAGGSVTLPPEEARAYAEAHPDRDLVLSMRPDDSTVTLELSVDPAAPGALSVRRREVFDPAGNATVVDSAGG [r13_481_JUSTAS] | -0.182 ± 0.15 | 0.308 ± 0.13
14 | SAGGMTIEVPDGFRIDGFRPFPDGRSAVLVRYKGTGKVEIFPFGDRVPEASADEPVEVEVVPIPPELLSAGG [r13_173_TrMRF] | -0.353 ± 0.14 | 0.155 ± 0.21
15 | SAGGAPDIPILTASYSPDGVLYSSTTTPINGTLHYFPEDNPVVLATDPATGLTVPVGTLEDVKRLIASAGGS [r8_232_TrMRF] | -0.37 ± 0.19 | 0.208 ± 0.14
16 | SAGGSAGGSAGGRIRLPGWEIEDVKVYETGDKPYYTITYKNPNGKPKKMLMPADDLDDFSAGGSAGGSAGGS [r10_645_TrROS] | -0.618 ± 0.52 | -0.216 ± 0.61
17 | SAGGSAGGSAEKDVKLLDVEELEEERVALVEFPVDPKVVRIKFDKDMTIDEIKKKAKELAGSAGGSAGGSAG [r3_142_TrMRF] | 0.0889 ± 0.15 | 0.523 ± 0.03
18 | SAGGSAMFTSSTSTDPATGLRRTTTLFPDSSAAVTTTVAVPPVPPLSPEAVAAGEAAAAAGRPPAVSAGGSA [r15_631_JUSTAS] | < -1 | 0.59 ± 0.17
19 | SAGGAKVTEVKVENGYVTVTVDGKLVAKAPPPPPPPKVRVRNADGEEEERSLEDLLAENPENLEIELESAGG [r13_802_TrROS_Hall] | -0.0384 ± 0.28 | 0.359 ± 0.1
20 | SAGGKKTVEIPIWMPYDDAKNIAKEAVEEAAASNDNVTVTIEIWQWEPDPNGKPEWQPIGKAEIKVPPSAGG [r13_974_TrROS] | -0.43 ± 0.19 | -0.013 ± 0.064
21 | SAGGNIPPGETWKIKFPGKPIEIQMQQINGKPMYRLRDKNNKPHGTMTPDEADEFLDKLPPNWEIERYSAGG [r13_657_TrROS] | -0.353 ± 0.22 | -0.253 ± 0.37
22 | SAGGSNKNSPEDQKRKQQPPQPKVRTIPGPLSEDQIKNLLDNGQPIIIEGPDGEWWVIKNNEIEPISAGGSA [r2_33_TrROS] | -0.0552 ± 0.24 | 0.255 ± 0.14
23 | SAGGSAGGSAGGAAEVLEALRAARGQPVVVLVKDPAGNEREVTVPGDTARFPGWTVVELLSAGGSAGGSAGG [r7_998_JUSTAS] | 0.341 ± 0.17 | 0.739 ± 0.11
24 | SAGGSAGGSAGGSDMEIVPRRIPDGFRLMVARNPEGTYTVQVWNPNGKPKWETIPPDEISAGGSAGGSAGGS [r4_120_TrROS] | -0.485 ± 0.21 | -0.185 ± 0.22

Row | Sequence | folding stability dG unfold [1] [kcal/mol] | folding stability dG unfold [2] [kcal/mol]
25 | SAGGSAGGSAARAYTDVDPVPSTLPNGERVVRVTEAGTGTTSDVPLEALADLDRGAGVTVPPSAGGSAGGSA [r18_288_JUSTAS] | -0.249 ± 0.069 | 0.538 ± 0.059
26 | SAGGSAGGSAGPKSIPLDNATVTEFDSPNGDKVFIFSHPNKKKRLAILKDGKLVKEIPIESAGGSAGGSAGG [r11_1038_TrMRF] | -0.26 ± 0.3 | 0.0908 ± 0.31
27 | SAGGKKEYKILITGKSIPSDGIVYLPNPNKVNIKSNNNYTYKTIPITIIADNNPEKAKKIAKELGLGSAGGS [r16_467_TrMRF] | < -1 | 0.232 ± 0.34
28 | SAGGSAGGSGSSVERSPSGEVVTTTPTAGGTLRTVHDPSGTRTLTDVASGKVLATYTPAVPVASAGGSAGGS [r12_235_JUSTAS] | < -1 | -0.638 ± 0.31
29 | SAGGSAGGSAGGSGPPHMRTTNEVTITLDGTVVSGSTPLPESLPPGVETYTTETYLPPLSAGGSAGGSAGGS [r4_436_JUSTAS] | < -1 | -0.308 ± 0.13
30 | SAGGSAGGSAGGIYIPLEDLEKNGLGFEELVEKLGVDVEIEVLETEPGKPVAKIRPKLGSAGGSAGGSAGGS [r10_855_TrMRF] | 0.435 ± 0.093 | 0.968 ± 0.027
31 | SAGMITLEKTVPLSEATPEKAKEIAEELLEKLKKEGLPEGLEKTSIEITELPGDELIVKVPTKIVSKESAGG [r19_87_JUSTAS] | < -1 | -0.556 ± 0.14
32 | SAGGSAGGSAGGSSSMTSEKVTEKTEFDKETGKKYKIITQRISPSSVGNSSLKTEIKLESAGGSAGGSAGGS [r10_535_JUSTAS] | -0.735 ± 0.61 | -0.0486 ± 0.25
33 | SMDVVTEVTVKLPYRDASHHHHLNIKVTRTISSKDPSLSPEALPPEVLAEEAKKEAIEELKKKGIPEEFLSA [r9_516_JUSTAS] | < -1 | -0.346 ± 0.64
34 | SAGGSAGGGPYKTSYAIVDGSVVASTEGDPETGVVTSTFTFDGSDVEYTTPATPGEAVTRTVSLSAGGSAGG [r6_972_JUSTAS] | 0.346 ± 0.047 | 0.797 ± 0.059
35 | QIPPGAKVEFGNKEIEVPPGKELMIFNGHIMTQDDMEDMMKNMPDGMEMYRYKVEDNKGKIDKVRRMRMKPS [r1_304_TrROS] | < -1 | -0.102 ± 0.57
36 | SAGGSAGGSATLTVEVLEEVVEPVPDPSLTPVRLLVRDPANGELREAVVIRDPRRGALRLESAGGSAGGSAG [r3_1_JUSTAS] | -0.488 ± 0.22 | 0.0495 ± 0.22
37 | SAGGSAGGSAGGSDSSVITFDIPVSEYPAKIKLSPETKTMTVVSTSPEGTVKVAIERPGSAGGSAGGSAGGS [r10_352_JUSTAS] | -0.889 ± 0.48 | -0.297 ± 0.14
38 | SAGGSAGGPKWRRYTIPLDKIKEIDPGGTVTLDDIQDLGLPPDHEIRVVPRPDGEPWVSIEVPYSAGGSAGG [r6_553_TrROS] | 0.201 ± 0.11 | 0.506 ± 0.14
39 | SMTPEVSVITLRPVEVKKVGEVPVVTLEVTEVENAPEELLEKVKAGAKLTIEVPKDEPIEPDEEIEVVLPSA [r9_557_JUSTAS] | -0.706 ± 0.27 | 0.146 ± 0.1
40 | SAGGAPVHLDTTATTIEPLPTGGPVLRVETRFPDGSTRTGDFASREELLARLEASPDAATIRLAAVASAGGS [r16_757_JUSTAS] | 0.203 ± 0.096 | 0.896 ± 0.056
41 | SAGMITRTITTVDPVDPALVAAISPDLVFPDGSTVSRDGDRLVITTPVTLALPPSPDPAGQLVLPTAASAGG [r19_148_JUSTAS] | -0.00544 ± 0.17 | 0.483 ± 0.087
42 | SAGGSAGGSAGGSMKTEEVVYVKTPDAWVRLKKEEAEKLEKETGVKIERESFTLPAGALESAGGSAGGSAGG [r7_185_JUSTAS] | 0.405 ± 0.24 | 0.89 ± 0.17
43 | SAGGTIEEIRDQLKNMPPGYHVDLKIPNGRSHSFGSLEDIEDLPITNPNGRKIEITEVQPMPPPDEQSAGGS [r16_680_TrROS] | -0.703 ± 0.68 | 0.195 ± 0.16
44 | SAGGSAGGSAGGPLPVTVTVLERTHYPEEGLYTVKTEGGTVITLPPELIDKHPPGSTVLLSAGGSAGGSAGG [r11_124_JUSTAS] | < -1 | -0.736 ± 0.82
45 | SMKTYTFTDPNNGIKYTITIDPNKPLVNVTVTKPGGEPVETQTVSVAPGKINLSLNVDGKPISISISLPESA [r9_385_JUSTAS] | 5.37 ± 0.2 | 5.29 ± 0.15
46 | SAGGSAGGSTLVFAPDDTLYLRIYLPETGGWRYIEVPAGQADSVARPLGAVRLEAYRRDEPVPSAGGSAGGS [r12_294_TrMRF] | 0.123 ± 0.15 | 0.83 ± 0.23
47 | SAGGGMGSSMKAKVEEEIPELKAADSTKVEITVTVTETRSFALPGGELATTTTTTTKTLEVEVPEEESAGGS [r8_203_JUSTAS] | -0.217 ± 0.34 | 0.208 ± 0.26
